Publication PMC5736413 (Journal of immunology (Baltimore, Md. : 1950), 2017)

Target: recombinant mouse Factor H (mouse, UniProt P06909 19-1234)
Assay: SPR

recombinant mouse Factor H, sequence (P06909 19-1234): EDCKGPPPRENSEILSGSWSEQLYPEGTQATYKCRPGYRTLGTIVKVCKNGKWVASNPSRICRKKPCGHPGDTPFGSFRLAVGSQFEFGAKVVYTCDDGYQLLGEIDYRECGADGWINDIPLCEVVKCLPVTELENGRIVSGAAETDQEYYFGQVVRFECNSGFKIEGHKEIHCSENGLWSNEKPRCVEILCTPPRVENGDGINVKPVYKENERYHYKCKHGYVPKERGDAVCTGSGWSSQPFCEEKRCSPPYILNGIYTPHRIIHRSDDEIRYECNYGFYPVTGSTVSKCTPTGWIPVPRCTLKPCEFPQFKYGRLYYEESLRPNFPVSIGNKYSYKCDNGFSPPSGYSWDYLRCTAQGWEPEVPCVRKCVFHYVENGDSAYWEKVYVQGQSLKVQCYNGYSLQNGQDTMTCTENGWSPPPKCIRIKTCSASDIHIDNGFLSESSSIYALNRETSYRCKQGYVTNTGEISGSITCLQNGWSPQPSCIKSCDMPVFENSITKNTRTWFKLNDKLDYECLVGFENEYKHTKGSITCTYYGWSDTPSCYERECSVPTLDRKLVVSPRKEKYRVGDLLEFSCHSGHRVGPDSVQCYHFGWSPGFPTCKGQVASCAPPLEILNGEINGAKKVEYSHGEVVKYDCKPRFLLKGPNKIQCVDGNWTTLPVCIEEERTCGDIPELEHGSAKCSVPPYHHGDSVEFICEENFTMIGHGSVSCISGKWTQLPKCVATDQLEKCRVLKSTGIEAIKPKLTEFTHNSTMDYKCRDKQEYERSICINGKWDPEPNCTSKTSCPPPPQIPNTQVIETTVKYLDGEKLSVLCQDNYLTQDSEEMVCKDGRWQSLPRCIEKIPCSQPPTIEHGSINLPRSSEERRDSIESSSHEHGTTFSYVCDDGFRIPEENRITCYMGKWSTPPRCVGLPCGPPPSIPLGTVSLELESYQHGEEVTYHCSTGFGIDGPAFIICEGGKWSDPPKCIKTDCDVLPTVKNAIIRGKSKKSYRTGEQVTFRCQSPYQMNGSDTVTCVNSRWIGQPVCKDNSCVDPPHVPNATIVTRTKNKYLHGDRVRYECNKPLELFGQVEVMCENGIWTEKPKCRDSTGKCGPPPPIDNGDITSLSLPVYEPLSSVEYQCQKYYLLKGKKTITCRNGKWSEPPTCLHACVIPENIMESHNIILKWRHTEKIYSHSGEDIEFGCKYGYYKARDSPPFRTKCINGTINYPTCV

B1: recombinant mouse C3d (C1010A) (domain or fragment)
chain: not shown
- Kd: 3.85 µM
